Target: T1, c-AMP-dependent protein kinase A (PKA) (Bos taurus, UniProt P00517)
T1 construct: purified c-AMP-dependent protein kinase A (PKA, Promega) from bovine heart; purchased Promega; host or cells: bovine heart (tissue-purified)
Assay: PKA activity assay (GSK-3 substrate phosphorylation)
Type: biochemical, bovine
Conditions: Aβ 10 μM, PKA 2U
Experimental: Recombinant Phosphatase and Tensin Homolog (PTEN; R & D Systems, Minneapolis, Minn.), purified PP2A from human erythrocytes (Upstate, Temecula, Calif.), and purified c-AMP-dependent protein kinase A (PKA, Promega) from bovine heart were stored at −20 and used freshly. PKA inhibitor (PKI, Biosource) and PI3K inhibitor, LY294002 (Cell Signaling) were diluted to 20 or 10 μM in kinase buffer. Antibodies used were: anti-cdk4 (polyclonal), Akt, Actin (polyclonal), and IRa (polyclonal) (Santa Cruz); p-Akt (polyclonal; Ser473 and Thr308), p-GSK-3α/0 (polyclonal; Ser21/9), GSK-30 (polyclonal), IRP (monoclonal), p-Tyrosine (monoclonal), and p-PDK (polyclonal, Ser241) (Cell Signaling, Danvers, Mass.); IRS-1 (monoclonal) and PDK (monoclonal) (BD Biosciences); PI3K (polyclonal, p85) and SGK (polyclonal) (Upstate, Temecula, Calif.); Rictor (polyclonal) (Bethyl Laboratories, Montgomery, Tex.); 6E10 (monoclonal; Covance Co.); R1282 (polyclonal; gift from Dr. Selkoe's lab). Phospholipase A2 (PLA2) was from Sigma. The lipids phosphatidylinositol-tris-3,4,5-phosphate, dipalmitoyl, (PIP3) (Matreya LLC, Pleasant Gap, Pa.), and D-myo-Phosphatidylinositol (PtdIns; PI) (Echelon, Salt Lake City, Utah) were diluted into water or CHCl3:MeOH:H2O (1:2:0.8), aliquoted into 100 μg vials and stored at −20° C. […]

PKA phosphorylation of GSK-3 α/β substrate: not inhibited
Substance: Aβ42: synthetic 42 amino acid β-amyloid peptide, forward sequence, freshly prepared, predominantly monomeric (BioSource)
